Experimental data from patent US20120253017A1.
pKd: −log10 of the molar value.

Assays:
[1] = target: mouse Stem Cell Factor, 6xHIS tag (mouse) (UniProt P20826); assay: BIAcore, SCF on CM5 chip
[2] = target: human Stem Cell Factor, 6xHIS tag (human) (UniProt P21583); assay: BIAcore, SCF on CM5 chip
[3] = target: rat Stem Cell Factor, GlySerHis(6) tag (rat) (UniProt P21581); assay: BIAcore, SCF on high density CM5 chip
[4] = target: mouse Stem Cell Factor, 6xHIS tag (mouse) (UniProt P20826); assay: BIAcore, SCF on high density CM5 chip
[5] = target: mouse c-kit (recombinant, on BIAcore chip) (mouse) (UniProt P05532); assay: BIAcore, mouse cKIT on high density CM5 chip

Sequence of mouse Stem Cell Factor, 6xHIS tag (mouse) (P20826 26-190 limits assumed): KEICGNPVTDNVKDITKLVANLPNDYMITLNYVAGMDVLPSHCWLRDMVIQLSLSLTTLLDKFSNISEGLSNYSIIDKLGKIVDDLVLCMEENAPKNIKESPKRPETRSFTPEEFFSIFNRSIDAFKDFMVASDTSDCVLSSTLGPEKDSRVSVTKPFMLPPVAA
Sequence of rat Stem Cell Factor, GlySerHis(6) tag (rat) (P21581 other isoform, or with tags, fused parts or gaps limits assumed): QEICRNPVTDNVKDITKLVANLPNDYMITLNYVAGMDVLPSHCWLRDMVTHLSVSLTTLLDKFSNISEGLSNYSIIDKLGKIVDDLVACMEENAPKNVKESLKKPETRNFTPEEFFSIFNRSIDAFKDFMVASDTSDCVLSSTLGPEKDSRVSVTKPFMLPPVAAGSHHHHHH
Sequence of human Stem Cell Factor, 6xHIS tag (human) (P21583 26-190 limits assumed): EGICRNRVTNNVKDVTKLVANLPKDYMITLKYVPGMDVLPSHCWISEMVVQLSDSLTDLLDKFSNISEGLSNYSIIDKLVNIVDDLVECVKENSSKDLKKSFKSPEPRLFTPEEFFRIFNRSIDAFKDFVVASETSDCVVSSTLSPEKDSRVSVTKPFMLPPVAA

**Q.** What does the source list for “Cyno cKIT ECD-Fc (from UniProt O95905) (Fc fusion)”?
**A.** pKd [1]: 7.82; pKd [2]: 8.01

**Q.** With “mcKIT GNNK+ E207A (from UniProt P05532 25-527) (Fc fusion)” as the substance, how does the pKd [3] read?
**A.** 7.09

**Q.** What about the pKd [4] of the same substance?
**A.** 7.59

**Q.** How did the response (RU) [5] turn out when anti mouse cKIT antibody clone 2B8 was run?
**A.** 100 RU
